In article PMC4545946, “Human Papillomavirus Type 18 cis-Elements Crucial for Segregation and Latency”:

Key:
Details in all cases: protein: recombinant; tags: N-terminal Strep-II; chain copies: 2; label: 32P 5' end
[1] = target: T1, HPV-18 E2 (N-terminal Strep-II tag) (Human papillomavirus type 18, UniProt P06790 1-365); assay: EMSA; two dimers, cooperative; k12 order 1-Linker < 3-Linker < 2-Linker (values only in Fig 4D); >95% probe bound at 1.65 uM E2
[2] = target: T1, HPV-18 E2 (N-terminal Strep-II tag); assay: EMSA; two dimers, cooperative; highest k12 (value only in Fig 4D)
[3] = target: T1, HPV-18 E2 (N-terminal Strep-II tag); assay: EMSA; two dimers, cooperative; intermediate k12 (value only in Fig 4D)

T1 sequence (P06790 whole entry): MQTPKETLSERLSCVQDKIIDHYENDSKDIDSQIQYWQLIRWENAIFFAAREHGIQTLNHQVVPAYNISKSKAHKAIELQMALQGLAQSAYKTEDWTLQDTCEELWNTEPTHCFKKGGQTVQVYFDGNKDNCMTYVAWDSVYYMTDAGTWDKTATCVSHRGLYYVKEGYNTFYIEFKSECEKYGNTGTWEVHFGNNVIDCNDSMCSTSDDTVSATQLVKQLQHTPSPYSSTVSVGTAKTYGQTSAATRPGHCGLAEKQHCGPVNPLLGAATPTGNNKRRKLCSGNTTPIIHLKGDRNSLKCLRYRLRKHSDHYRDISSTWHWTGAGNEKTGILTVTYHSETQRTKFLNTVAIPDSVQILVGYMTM

B1: 1-Linker (wt, E2BS #1 and #2 with CGGG spacer) (dsDNA)
DNA 1: ACCGAAAACGGTCGGGACCGAAAACGGT
DNA 2: ACCGTTTTCGGTCCCGACCGTTTTCGGT
Does B1 bind [1]?
Result: binds

B2: 2-Linker (E2BS #1 and #2, 8 bp spacer) (dsDNA)
DNA 1: ACCGAAAACGGTCGGGCGGGACCGAAAACGGT
DNA 2: ACCGTTTTCGGTCCCGCCCGACCGTTTTCGGT
Does B2 bind [2]?
Result: binds

B3: 3-Linker (E2BS #1 and #2, 12 bp spacer) (dsDNA)
DNA 1: ACCGAAAACGGTCGGGCGGGCGGGACCGAAAACGGT
DNA 2: ACCGTTTTCGGTCCCGCCCGCCCGACCGTTTTCGGT
Does B3 bind [3]?
Result: binds
